Data published in PMC12955825 (Med (New York, N.Y.), 2025).
Bridge positions count the residues as written; N and C are the ends. Ends that are not written are not given here.

Key:
Test in all cases: phage-binding assay
[1] = biological target: BAG family molecular chaperone regulator 3 (human, UniProt O95817 1-575)
[2] = biological target: peptidyl-prolyl cis-trans isomerase B (human, UniProt P23284 34-216)
[3] = biological target: HSP27, human recombinant protein (human, UniProt P04792 1-205)
[4] = biological target: T1, CASQ1, human recombinant protein (human, UniProt P31415 35-396)
T1 sequence (looked up): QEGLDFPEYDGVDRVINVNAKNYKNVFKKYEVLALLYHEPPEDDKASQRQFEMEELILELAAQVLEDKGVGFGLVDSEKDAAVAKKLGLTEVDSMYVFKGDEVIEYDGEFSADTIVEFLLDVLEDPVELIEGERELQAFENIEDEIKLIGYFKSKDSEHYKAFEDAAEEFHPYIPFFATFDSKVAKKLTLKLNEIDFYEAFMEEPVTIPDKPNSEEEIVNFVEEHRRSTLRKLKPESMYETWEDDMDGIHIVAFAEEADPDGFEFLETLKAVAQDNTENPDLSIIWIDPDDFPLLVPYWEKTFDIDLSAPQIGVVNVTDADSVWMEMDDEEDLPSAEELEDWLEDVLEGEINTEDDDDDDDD

[5] = biological target: T2, CRYAB, human recombinant protein (human, UniProt P02511 1-175)
T2 sequence (looked up): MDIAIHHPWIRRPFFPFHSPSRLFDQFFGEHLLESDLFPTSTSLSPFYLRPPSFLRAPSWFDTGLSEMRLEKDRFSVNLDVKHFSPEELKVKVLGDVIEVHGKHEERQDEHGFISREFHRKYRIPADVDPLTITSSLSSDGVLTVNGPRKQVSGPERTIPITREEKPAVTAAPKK

[6] = biological target: heat shock cognate 71 kDa protein (human, UniProt P11142 1-646)
[7] = biological target: T3, fructose-bisphosphate aldolase A (human, UniProt P04075 1-364)
T3 sequence (looked up): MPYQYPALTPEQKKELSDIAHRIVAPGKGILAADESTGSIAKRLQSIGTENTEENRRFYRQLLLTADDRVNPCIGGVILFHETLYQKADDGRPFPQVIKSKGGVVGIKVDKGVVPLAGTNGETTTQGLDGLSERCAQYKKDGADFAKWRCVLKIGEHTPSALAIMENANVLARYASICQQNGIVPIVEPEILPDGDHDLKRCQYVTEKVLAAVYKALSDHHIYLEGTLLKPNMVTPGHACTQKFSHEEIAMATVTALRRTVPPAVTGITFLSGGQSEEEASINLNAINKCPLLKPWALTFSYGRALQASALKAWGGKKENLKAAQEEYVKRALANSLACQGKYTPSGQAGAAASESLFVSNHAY

[8] = biological target: T4, calumenin (human, UniProt O43852 20-315)
T4 sequence (looked up): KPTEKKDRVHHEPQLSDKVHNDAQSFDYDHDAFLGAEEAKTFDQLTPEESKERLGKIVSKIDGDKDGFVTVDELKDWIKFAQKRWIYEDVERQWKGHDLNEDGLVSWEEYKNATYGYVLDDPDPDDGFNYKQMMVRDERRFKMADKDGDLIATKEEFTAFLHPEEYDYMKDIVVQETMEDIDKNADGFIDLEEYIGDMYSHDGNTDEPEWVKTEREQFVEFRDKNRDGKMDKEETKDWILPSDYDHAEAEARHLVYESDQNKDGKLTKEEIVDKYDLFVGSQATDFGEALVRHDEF

[9] = biological target: T5, thioredoxin-dependent peroxide reductase (mitochondrial) (human, UniProt P30048 62-256)
T5 sequence (looked up): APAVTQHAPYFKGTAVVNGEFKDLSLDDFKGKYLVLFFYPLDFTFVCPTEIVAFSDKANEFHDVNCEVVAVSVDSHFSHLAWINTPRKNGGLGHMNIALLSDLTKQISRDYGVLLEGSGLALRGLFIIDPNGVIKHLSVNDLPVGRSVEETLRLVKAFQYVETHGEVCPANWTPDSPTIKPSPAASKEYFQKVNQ

[10] = biological target: T6, annexin A1 (human, UniProt P04083 1-346)
T6 sequence (looked up): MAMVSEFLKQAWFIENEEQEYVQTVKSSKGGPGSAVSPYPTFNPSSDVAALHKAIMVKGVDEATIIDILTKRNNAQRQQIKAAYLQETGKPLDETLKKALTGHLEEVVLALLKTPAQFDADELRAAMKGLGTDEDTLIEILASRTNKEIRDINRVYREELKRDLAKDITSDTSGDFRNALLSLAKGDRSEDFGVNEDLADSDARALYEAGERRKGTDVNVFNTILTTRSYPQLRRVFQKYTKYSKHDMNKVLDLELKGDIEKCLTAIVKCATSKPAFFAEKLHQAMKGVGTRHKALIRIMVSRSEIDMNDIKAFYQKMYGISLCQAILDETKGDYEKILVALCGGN

[11] = biological target: 78 kDa glucose-regulated protein (human, UniProt P11021 19-654)
[12] = biological target: T7, complement component 1 Q subcomponent-binding protein (mitochondrial) (human, UniProt Q07021 74-282)
T7 sequence (looked up): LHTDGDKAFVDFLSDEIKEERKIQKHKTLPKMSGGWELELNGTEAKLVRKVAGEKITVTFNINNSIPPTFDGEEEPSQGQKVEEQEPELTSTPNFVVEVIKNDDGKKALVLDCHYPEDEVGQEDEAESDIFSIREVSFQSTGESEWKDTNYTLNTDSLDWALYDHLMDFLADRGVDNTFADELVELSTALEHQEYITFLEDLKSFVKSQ

[13] = biological target: lactotransferrin (human, UniProt P02788 20-710)
[14] = biological target: desmin (human, UniProt P17661 1-470)
Sequence of desmin (P17661 whole entry): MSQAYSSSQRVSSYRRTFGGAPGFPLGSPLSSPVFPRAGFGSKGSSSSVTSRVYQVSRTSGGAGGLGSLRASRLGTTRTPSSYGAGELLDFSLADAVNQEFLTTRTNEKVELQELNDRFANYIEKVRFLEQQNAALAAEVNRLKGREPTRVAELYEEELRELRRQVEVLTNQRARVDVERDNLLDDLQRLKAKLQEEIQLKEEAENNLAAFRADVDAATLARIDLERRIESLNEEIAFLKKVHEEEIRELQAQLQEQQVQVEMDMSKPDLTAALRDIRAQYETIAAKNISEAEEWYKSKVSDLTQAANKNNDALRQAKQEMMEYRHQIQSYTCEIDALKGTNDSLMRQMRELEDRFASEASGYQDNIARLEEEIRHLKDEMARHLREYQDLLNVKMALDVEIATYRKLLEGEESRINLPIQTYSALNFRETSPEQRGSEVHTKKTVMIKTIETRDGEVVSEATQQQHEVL

Sequence of peptidyl-prolyl cis-trans isomerase B (P23284 34-216): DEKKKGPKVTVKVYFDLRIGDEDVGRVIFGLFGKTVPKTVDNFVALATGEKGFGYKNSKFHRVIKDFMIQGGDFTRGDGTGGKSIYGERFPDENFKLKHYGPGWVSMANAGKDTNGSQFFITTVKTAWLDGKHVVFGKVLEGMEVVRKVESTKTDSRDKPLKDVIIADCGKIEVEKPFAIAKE
Sequence of HSP27, human recombinant protein (P04792 whole entry): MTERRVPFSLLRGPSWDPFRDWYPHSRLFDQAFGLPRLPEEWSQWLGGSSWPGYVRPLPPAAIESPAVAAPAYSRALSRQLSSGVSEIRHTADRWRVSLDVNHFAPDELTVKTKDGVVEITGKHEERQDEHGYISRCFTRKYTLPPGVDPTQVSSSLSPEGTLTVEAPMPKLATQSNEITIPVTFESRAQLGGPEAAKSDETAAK
Sequence of heat shock cognate 71 kDa protein (P11142 whole entry): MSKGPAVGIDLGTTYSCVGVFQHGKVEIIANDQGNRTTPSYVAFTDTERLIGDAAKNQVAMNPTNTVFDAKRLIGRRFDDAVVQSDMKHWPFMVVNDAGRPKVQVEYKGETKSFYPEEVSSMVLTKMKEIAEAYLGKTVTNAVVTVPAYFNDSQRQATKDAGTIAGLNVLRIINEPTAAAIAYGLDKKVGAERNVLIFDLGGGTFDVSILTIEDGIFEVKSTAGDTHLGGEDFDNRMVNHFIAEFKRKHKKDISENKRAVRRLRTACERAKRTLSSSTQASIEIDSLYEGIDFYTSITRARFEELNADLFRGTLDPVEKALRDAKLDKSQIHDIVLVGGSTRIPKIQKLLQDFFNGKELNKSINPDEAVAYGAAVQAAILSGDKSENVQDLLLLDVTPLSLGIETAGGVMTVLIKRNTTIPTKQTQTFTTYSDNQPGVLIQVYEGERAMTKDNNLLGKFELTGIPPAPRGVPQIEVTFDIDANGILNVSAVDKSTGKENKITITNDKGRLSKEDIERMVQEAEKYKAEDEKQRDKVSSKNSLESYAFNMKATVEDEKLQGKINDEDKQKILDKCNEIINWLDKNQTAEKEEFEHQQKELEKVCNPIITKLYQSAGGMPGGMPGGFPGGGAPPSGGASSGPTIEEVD
Sequence of lactotransferrin (P02788 20-710): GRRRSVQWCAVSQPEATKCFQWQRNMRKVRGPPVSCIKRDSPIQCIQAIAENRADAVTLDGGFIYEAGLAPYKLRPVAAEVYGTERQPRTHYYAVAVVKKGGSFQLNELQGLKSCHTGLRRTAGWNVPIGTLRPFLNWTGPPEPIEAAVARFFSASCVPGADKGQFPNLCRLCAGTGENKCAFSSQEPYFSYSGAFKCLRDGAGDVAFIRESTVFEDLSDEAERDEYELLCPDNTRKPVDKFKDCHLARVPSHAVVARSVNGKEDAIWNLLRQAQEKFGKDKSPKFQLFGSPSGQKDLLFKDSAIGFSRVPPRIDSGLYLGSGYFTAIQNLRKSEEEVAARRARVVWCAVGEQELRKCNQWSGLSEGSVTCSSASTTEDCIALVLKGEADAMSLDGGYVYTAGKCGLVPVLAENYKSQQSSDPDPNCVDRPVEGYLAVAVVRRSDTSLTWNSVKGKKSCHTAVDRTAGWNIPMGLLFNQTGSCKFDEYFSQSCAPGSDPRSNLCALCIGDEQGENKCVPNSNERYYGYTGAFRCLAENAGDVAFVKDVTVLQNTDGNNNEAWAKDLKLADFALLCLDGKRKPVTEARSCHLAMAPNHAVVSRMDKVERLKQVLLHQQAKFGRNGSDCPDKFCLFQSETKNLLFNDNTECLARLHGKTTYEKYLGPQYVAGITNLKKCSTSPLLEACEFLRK
Sequence of BAG family molecular chaperone regulator 3 (O95817 whole entry): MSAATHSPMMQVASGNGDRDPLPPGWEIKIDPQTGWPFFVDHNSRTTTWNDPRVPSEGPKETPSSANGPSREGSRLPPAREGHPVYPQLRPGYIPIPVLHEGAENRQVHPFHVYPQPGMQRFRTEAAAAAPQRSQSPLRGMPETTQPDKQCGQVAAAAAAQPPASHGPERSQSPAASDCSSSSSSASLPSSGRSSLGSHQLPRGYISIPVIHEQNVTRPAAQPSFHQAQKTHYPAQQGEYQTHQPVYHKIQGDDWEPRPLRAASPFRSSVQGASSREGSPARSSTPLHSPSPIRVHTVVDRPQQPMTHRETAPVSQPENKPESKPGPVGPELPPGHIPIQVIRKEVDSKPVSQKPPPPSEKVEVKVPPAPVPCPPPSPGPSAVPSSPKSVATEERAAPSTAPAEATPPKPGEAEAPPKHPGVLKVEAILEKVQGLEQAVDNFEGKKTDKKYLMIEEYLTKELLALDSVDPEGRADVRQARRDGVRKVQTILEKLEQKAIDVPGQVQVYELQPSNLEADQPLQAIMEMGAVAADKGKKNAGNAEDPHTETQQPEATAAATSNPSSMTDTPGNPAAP
Sequence of 78 kDa glucose-regulated protein (P11021 19-654): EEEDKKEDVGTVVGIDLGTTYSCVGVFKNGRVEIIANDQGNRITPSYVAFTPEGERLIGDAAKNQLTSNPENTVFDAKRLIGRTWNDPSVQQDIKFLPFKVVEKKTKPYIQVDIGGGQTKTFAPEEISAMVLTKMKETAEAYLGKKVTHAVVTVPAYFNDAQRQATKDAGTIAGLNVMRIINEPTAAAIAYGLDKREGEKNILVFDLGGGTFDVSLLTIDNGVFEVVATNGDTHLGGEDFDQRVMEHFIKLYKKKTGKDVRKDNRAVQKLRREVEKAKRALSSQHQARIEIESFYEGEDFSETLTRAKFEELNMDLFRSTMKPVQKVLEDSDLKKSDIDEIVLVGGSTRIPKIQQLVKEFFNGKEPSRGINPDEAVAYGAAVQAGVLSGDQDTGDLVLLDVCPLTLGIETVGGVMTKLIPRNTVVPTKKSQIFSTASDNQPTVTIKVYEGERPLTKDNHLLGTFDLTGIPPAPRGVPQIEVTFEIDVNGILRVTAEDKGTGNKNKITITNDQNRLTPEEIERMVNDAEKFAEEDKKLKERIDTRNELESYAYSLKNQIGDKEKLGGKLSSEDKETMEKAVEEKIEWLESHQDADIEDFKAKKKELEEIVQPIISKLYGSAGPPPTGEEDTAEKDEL

B1: CEGKEDMQGC-displaying phage (peptide)
peptide: CEGKEDMQGC
modifications: disulfide 1-10
B1: binds [1].

B2: CASAVPISC-displaying phage (peptide)
peptide: CASAVPISC
modifications: disulfide 1-9
B2: binds [2].

B3: CLVSGRSRC-displaying phage (peptide)
peptide: CLVSGRSRC
modifications: disulfide 1-9
B3: binds [3].

B4: CLRGFQRVC-displaying phage (peptide)
peptide: CLRGFQRVC
modifications: disulfide 1-9
B4: binds [4].

B5: CRPARVRGAC-displaying phage (peptide)
peptide: CRPARVRGAC
modifications: disulfide 1-10
B5: binds [5].

B6: CLNVSGRSC-displaying phage (peptide)
peptide: CLNVSGRSC
modifications: disulfide 1-9
B6: binds [6].

B7: CKWEGLDMAC-displaying phage (peptide)
peptide: CKWEGLDMAC
modifications: disulfide 1-10; also: displayed on phage
B7: binds [7].

B8: CPTFFAVPC-displaying phage (peptide)
peptide: CPTFFAVPC
modifications: disulfide 1-9
B8: binds [8].

B9: CLRGFPALVC-displaying phage (peptide)
peptide: CLRGFPALVC
modifications: disulfide 1-10
B9: binds [4].

B10: CTESFQKHLC-displaying phage (peptide)
peptide: CTESFQKHLC
modifications: disulfide 1-10
B10: binds [9].

B11: CHKPPNFGSC-displaying phage (peptide)
peptide: CHKPPNFGSC
modifications: disulfide 1-10
B11: binds [10].

B12: CVLRFFSSC-displaying phage (peptide)
peptide: CVLRFFSSC
modifications: disulfide 1-9
B12: binds [11].

B13: CSRGSPDARC-displaying phage (peptide)
peptide: CSRGSPDARC
modifications: disulfide 1-10
B13: binds [12].

B14: CGILGPWMAC-displaying phage (peptide)
peptide: CGILGPWMAC
modifications: disulfide 1-10
B14: binds [13].

B15: CRGFVRGSC-displaying phage (peptide)
peptide: CRGFVRGSC
modifications: disulfide 1-9
B15: binds [5].

B16: CSRAKGRGAC-displaying phage (peptide)
peptide: CSRAKGRGAC
modifications: disulfide 1-10
B16: binds [14].
